According to US20090252732A1 (published 2009):

T1: IL-31-CEE: purified, recombinant human IL-31 fused at the C-terminal with a peptide consisting of the … (human, UniProt Q6EBC2 24-164)
T1 sequence: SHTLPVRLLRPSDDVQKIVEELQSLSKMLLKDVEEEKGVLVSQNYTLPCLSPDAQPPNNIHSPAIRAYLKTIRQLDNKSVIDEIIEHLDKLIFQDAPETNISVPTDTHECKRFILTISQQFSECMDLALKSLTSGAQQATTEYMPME

T2: mIL31-CEE: purified, recombinant mouse IL-31 (produced in BHK cells) fused at the C-terminus with a peptide … (mouse, UniProt Q6EAL8 31-163)
T2 construct: Biotinylated in the capture ELISA
T2 sequence: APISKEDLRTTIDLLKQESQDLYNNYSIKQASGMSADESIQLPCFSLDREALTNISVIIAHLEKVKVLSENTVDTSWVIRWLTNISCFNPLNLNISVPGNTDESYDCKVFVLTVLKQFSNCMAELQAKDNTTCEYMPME

T3: CEE peptide tag, sequence EYMPME
T3 construct: Tested only as the C-terminal tag of the other species' IL-31-CEE, not as a free peptide; also called CEE tag
T3 peptide: EYMPME


Key:
[1] = target: T1, IL-31-CEE: purified, recombinant human …; test: cell-based or functional assay
[2] = target: T2, mIL31-CEE: purified, recombinant mouse …; test: ELISA on plate bound mIL-31-CEE, first round clone supernatant
[3] = target: T3, CEE peptide tag, sequence EYMPME; test: ELISA on plate bound mIL-31-CEE (tag tested as part of that protein)
[4] = target: T1, IL-31-CEE: purified, recombinant human …; test: capture ELISA: mAb of first round clone supernatant captured on anti-mouse IgG Fc, biotinylated IL-31-CEE
Procedure: These new supernatants were tested using the cell-based neutralization assay (serial 3-fold dilutions starting with neat supernatant and proceeding to a final 1:243 dilution) as well as a “capture” style ELISA assay similar to that used in the development of the rat anti-murine IL-31 mAbs with the following differences; 1) sheep anti-mouse IgG, Fc specific antibody (Jackson Immunoresearch) (1 ug/mL) as plate coating antibody, 2) plates blocked once with PBS-Tween+1% BSA for 1 hr, 3) a single titration of each supernatant added to wells (serial 3-fold dilutions starting with neat supernatant and proceeding to a final 1:2187 dilution), and 4) addition of biotinylated IL-31-CEE (3:1 molar ratio of biotin:protein), 200 ng/mL. This assay was felt to be more pertinent than the binding of antibody to plate bound IL-31-CEE as it assessed the ability of antibody to bind to IL-31-CEE in solution, a property essential to a good antibody for sandwich style ELISAs. It was in fact observed that a number of the master wells supernatants containing antibody that bound well to plate bound IL-31-CEE poorly recognized this molecule in solution.
To reduce the number of hybridomas going into further subcloning, two new assays were performed with exhausted supernatant from each of the selected first round clones. […]

IC50 (ng/mL), cell-based neutralization (luciferase), IL-31-CEE at 300 pg/mL [1] [ng/mL]	IC50 (pM), cell-based neutralization (luciferase), IL-31-CEE at 300 pg/mL [1] [pM]	binding result [2]	binding result [3]	EC50 [4] [ng/mL]	Binder
1.2	7.98	no binding	no binding	–	mouse anti-human IL-31 mAb from clone 292.12.3.1 (ATCC Patent Deposit Designation PTA-6815) (antibody, mouse IgG1, V domains shown, Mouse IgG1, kappa; assays used supernatant of first round clone 292.12.3) VH: QVQLQQSGAELARPGASVNLSCKASGYTLTRYWMQWVKQRPGQGLEWIGAIYPGDGDTRYSQKFKGKATLTADKSSSTAYMQLNNLASEDSAVYYCAFPDGYYAAPYGMDYWGQGTSVTVSS VL: DIQMTQSPASLSASVGETVTITCRASGNIHNYLAWYQQKQGKSPQLLVYNAKTLADGVPSRFSGSRSETQYSLKINSLQPEDFGSYYCQHFWSTPWTFGGGTKLEIK
2	13.3	no binding	no binding	–	mouse anti-human IL-31 mAb from clone 292.72.3.1 (ATCC Patent Deposit Designation PTA-6816) (antibody, mouse IgG2a, V domains shown, Mouse IgG2a; assays used first round clone 292.72.3) VH: QVQVQQSGAELARPGASVKLSCKASGYTLTRYWMQWVKQRPGQGLEWIGAIYPRDGDTRYSQKFKGKATLTADKSSTTAYMQLSSLASEDSAVYYCAYPDGSYAAPNGMEYWGQGSSVTVSS VL: DIQMSQSPASLSASVGETVTITCRASGSIHNYLAWYQQKQGKSPQLLVYNAETLADGVPSRFSGSGSGTQYSLKISSLQPEDFGTYYCQHFWITPWTFGGGTKLEIK
1.08	7.18	no binding	no binding	–	mouse anti-human IL-31 mAb from clone 292.84.1.6 (ATCC Patent Deposit Designation PTA-6871) (antibody, V domains shown, Mouse IgG2a, kappa; Assays used first round clone 292.84.1) VH: QVQLQQSGAELARPGASVNLSCKASGYTLTRYWMQWVKQRPGQGLEWIGTIYPGDGDTRYSQKFKGKASLTADKSSNTAYMQLNNLASEDSAVYFCAFPDGYYAAPYGMDYWGQGTSVTVSS VL: DIQMTQSPASLSASVGETVTITCRASGNIHNYLAWYQQKQGRSPQLLVYNAKTLADGVPSRFSGSRSETQYSLKINSLQPEDFGSYYCQHFWSTPWTFGGGTKLEIK
–	–	no binding	no binding	13.4	mouse anti-human IL-31 mAb from clone 294.144.3.5 (ATCC Patent Deposit Designation PTA-6873) (antibody, mouse IgG1, V domains shown, Mouse IgG1) VH: QVQLQQSGPELMKPGASVKISCKATGYTFSTYWIEWIKQRPGHGLEWIGEILPGRGTTNYNAKFQGKATFTAETSSNTAYMQLSSLTSEDSAVYYCTTESKLGDDDYWQGTTLTVSS VL: ENVLTQSPAIMSASPGERVTMTCSASSSVSYMHWYQQKSSNSPKLWIYDTTKLASGVPGRFSGSGSGNSYSLTISSMEAEDVATYFCFQGSEHPLTFGGGTTLEI
6.48	43.2	no binding	no binding	–	mouse anti-human IL-31 mAb from clone 292.51.5.2 (antibody, mouse IgG1, V domains shown, Mouse IgG1; assays used first round clone 292.51.5) VH: EVQLVESGGDLVKPGGSLKLSCAASGFTFSSFVMSWVRQSPEKRLEWVATINSGGYYSFHPDSVKGRFTISRDNAKNTLYLQMSSLRSEDTAIYYCARQEGWSSAYFSYWGQGTLVTVSA VL: DIVMTQSPSSLAMSVGQKVTMICKSSQSLLNSSNQKNYLAWYQQKPGHSPKLLVSFTSTRESGVPDRFIGSGSGTDFTLTITNMQAEDLADYFCQQHYDTPYTFGGGTKLEIR
9.14	61	no binding	no binding	–	mouse anti-human IL-31 mAb from clone 292.105.4.1 (antibody, mouse IgG1, V domains shown, Mouse IgG1; assays used first round clone 292.105.4) VH: EVQLVESGGDLVKPGGSLKLSCAASGFTFSTYIMSWVRQSPEKRLEWVATINSGGYYTLYPDSVKGRFTISRDNAKNTLSLQLSSLRSEDTAMYFCARQEGWSSAWFAYWGQGTLVTVSA VL: not shown
8.29	55.2	no binding	no binding	–	mouse anti-human IL-31 mAb from clone 292.109.4.4 (antibody, mouse IgG1, V domains shown, Mouse IgG1; assays used first round clone 292.109.4) VH: EVQLVESGGDLVKPGGSLKLSCAASGFTFSTYIMSWVRQSPEKRLEWVATINSGGYYTLYPDSVKGRFTISRDNAKNTLSLQLSSLRSEDTAMYFCARQEGWSSAWFAYWGQGTLVTVSA VL: not shown
8.63	57.5	no binding	no binding	–	mouse anti-human IL-31 mAb from clone 292.39.5.3 (antibody, mouse IgG1, V domains shown, Mouse IgG1; assays used first round clone 292.39.5) VH: EVQLVESGGDLVKPGGSLKLSCAASGFTFSTYIMSWVRQSPEKRLEWVATINSGGYYTLYPDSVKGRFTISRDNVKNTLSLQLSSLRSEDTAMYFCARQEGWSSAWFAYWGQGTLVTVSA VL: not shown
10.1	67	no binding	no binding	3.4	mouse anti-human IL-31 mAb from clone 292.64.6.5.5 (antibody, mouse IgG1, V domains shown, Mouse IgG1; assays used first round clone 292.64.6) VH: EVQLVESGGDLVKPGGSLKLSCAASGFTFSTYIMSWVRQSPEKRLEWVATINSGGYYTLYPDSVKGRFTISRDNAKNTLSLQLSSLRSEDTAMYFCARQEGWSSAWFAYWGQGTLVTVSA VL: DIVMTQSPSSLAMSVGQKVTMICNSSQSLLNSSNQKNYLAWYQQKPGQSPRLLIYFASTGESGVPDRFIGSGSGTDFTLTISNVQAEDLADYFCQQHFSTPYTFGGGTKLEIR
6.55	43.7	no binding	no binding	–	mouse anti-human IL-31 mAb from clone 292.118.6.4 (ATCC Patent Deposit Designation PTA-6830) (antibody, mouse IgG1, V domains shown, Mouse IgG1; assays used first round clone 292.118.6) VH: EVQLVESGGGLVKPGGSLKLSCAVSGFTFKTYIMSWVRQSPEKRLEWVATINSGGYYTIYPDSVKGRFTISRDNAKNTLYLQMSSLRSEDTAMYYCARQEGWSSAWFAYWGQGTLVTVSA VL: DIVMTQSPSSLAMSVGQKVTMICNSSQSLLNSSNQKNYLAWYQQRPGQSPRLLVYFASTGESGVPDRFMGSGSGTDFTLTISNVQAEDLADYFCQQHFSTPYTFGGGTKLEIR
